Data reported in PMC8011160.

Tests used:
[1] = molecular target: collagen Type I (purified from rat tail) (rat), P02454; test: ELISA; host protein coated on microtiter wells; recombinant protein varied from 0 to 2 μM; absorbance with BSA subtracted; apparent Kd from the half-maximal binding concentration (GraphPad Prism 6); details: remark: other sources report otherwise
[2] = molecular target: T1, fibrinogen (purified from human plasma) (human), P02671; test: as above; details: remark: other sources report otherwise
T1 chain 1: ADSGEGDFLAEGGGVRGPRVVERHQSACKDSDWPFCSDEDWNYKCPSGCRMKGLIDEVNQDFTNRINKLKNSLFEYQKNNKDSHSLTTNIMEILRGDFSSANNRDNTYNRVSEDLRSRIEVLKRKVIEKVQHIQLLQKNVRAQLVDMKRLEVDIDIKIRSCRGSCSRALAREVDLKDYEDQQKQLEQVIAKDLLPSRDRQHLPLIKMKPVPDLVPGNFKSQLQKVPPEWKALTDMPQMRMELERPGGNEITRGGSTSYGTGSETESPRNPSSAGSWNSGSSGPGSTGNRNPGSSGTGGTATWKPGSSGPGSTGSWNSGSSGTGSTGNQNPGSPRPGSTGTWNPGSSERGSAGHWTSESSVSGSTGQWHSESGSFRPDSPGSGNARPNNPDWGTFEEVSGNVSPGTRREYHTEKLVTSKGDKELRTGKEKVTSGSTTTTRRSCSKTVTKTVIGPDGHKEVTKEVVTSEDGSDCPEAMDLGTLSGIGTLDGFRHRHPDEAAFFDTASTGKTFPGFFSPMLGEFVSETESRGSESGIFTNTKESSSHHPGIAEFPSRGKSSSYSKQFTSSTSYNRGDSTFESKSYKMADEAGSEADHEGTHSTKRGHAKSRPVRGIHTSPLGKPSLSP
T1 chain 2: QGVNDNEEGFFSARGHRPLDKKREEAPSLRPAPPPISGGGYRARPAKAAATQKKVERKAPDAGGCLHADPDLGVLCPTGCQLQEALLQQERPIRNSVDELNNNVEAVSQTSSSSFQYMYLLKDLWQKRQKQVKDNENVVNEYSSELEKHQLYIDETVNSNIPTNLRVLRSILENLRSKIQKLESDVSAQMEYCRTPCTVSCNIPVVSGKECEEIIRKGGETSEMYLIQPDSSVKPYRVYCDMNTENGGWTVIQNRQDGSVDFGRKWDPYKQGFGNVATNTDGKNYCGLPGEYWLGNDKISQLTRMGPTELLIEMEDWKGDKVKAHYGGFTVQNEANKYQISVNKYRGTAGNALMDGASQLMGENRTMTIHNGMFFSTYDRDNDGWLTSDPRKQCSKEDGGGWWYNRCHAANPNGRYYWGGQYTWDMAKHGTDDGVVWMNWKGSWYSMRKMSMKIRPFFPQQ
T1 chain 3: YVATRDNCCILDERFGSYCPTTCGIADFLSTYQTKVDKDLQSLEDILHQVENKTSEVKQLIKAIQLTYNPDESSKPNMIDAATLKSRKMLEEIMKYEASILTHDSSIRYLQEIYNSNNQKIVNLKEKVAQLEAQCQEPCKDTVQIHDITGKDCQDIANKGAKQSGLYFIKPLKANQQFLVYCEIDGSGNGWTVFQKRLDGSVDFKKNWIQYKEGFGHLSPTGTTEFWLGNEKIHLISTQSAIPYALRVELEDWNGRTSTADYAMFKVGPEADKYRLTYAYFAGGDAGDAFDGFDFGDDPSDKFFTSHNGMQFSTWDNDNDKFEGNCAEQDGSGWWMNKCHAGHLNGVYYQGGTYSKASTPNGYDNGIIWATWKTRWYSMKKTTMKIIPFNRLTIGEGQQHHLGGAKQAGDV

B1: GroEL protein of Leptospira interrogans (recombinant, His-tagged), P61438 1-546 (natural protein)
chain: MAKDIEYNETARRKLLEGVNKLANAVKVTLGPKGRNVVIDKKFGAPTITKDGVTVAKEIELEDPLENMGAQMVKEVSTKTNDVAGDGTTTATILAQSIINEGLKNVTAGANPMSLKKGIDKAVTAAVESIQKRAVKIENKKDIANVASISANNDNTIGNLIADAMDKVGKDGVITVEEAKSIETTLDVVEGMQFDRGYISPYMVTDAESMVATLNDPFILIYDKKISSMKDLIHILEKVAQAGKPLVIISEEVEGEALATIVVNTLRKTISCVAVKAPGFGDRRKSMLEDIAILTGGQVISEDLGMKLENTTLQMLGRANKVTVDKENTTIIEGKGQTKEIQGRIGQIKKQIEDTTSEYDREKLQERLAKLAGGVAVIHVGAATEVEMKEKKARVEDALSATRAAVEEGIVPGGGLTLLKAQEAVGSLKLDGDEATGAKIIFRALEEPIRMITSNAGLEGSVIVEHAKAKKGNEGFNALTMVWEDMIQAGVVDPAKVVRSALQNAASIGSMILTTEVTITDKPDKDAPNPMAGMGGGGMGGMGGMM
**Q.** Which Kd [1] does the source give for B1 here?
**A.** 11 nM

**Q.** What about the Kd [2] of the same binder?
**A.** 23 nM
